pKd: −log10 of the molar value.
Experiments:
[1] = target: Human IL-2 R alpha protein, His Tag (Acro, ILA-H52H9) (human) (UniProt P01589); experiment: BLI; details: ligand
[2] = target: Human IL-2 R beta protein, His-Tag (Acro, CD2-H5221) (human) (UniProt P14784); experiment: BLI; details: ligand
Sequence of UniProt P14784 (P14784 27-239): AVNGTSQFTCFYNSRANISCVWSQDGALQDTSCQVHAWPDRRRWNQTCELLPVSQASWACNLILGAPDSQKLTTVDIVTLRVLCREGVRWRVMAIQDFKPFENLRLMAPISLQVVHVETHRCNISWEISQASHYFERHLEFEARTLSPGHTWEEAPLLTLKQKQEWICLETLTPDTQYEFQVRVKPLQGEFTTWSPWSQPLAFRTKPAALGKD

Sequence of UniProt P01589 (P01589 22-213): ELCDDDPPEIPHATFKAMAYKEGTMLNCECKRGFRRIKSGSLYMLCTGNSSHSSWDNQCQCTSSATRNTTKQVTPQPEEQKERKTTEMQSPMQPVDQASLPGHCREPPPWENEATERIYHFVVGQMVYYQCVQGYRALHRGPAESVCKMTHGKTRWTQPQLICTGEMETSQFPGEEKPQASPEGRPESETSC

Question: Which results are given for “Proleukin (Novartis, hIL-2) (from UniProt P60568 22-153)”?
Answer: pKd [1]: 8.89; pKd [2]: 7.04

Source: patent publication US20230104217A1
